Source: patent publication US20240247080A1, “GLP1/GIP/NPY2 RECEPTOR TRIPLE AGONISTS” (Boehringer Ingelheim International GmbH, priority 2022, published 2024)
Where a chain is given by its changes, count along the chain named. Starred links: 1 amine or outer side, 2 acyl side, 3 side chain; linkers in the order of their positions; H or OH if unused. Non-standard residues stand in square brackets, D forms with d. Groups on a side chain read outwards from the residue. No end group written: not given here. *: point of attachment. C20 diacid = O=C(O)CCCCCCCCCCCCCCCCCCC(=O)*; C18 diacid = O=C(O)CCCCCCCCCCCCCCCCC(=O)*; γGlu = O=C(O)[C@H](CCC(=O)[*:2])N[*:1]; εLys = N[C@@H](CCCCN[*:1])C(=O)[*:2]; AEEA = NCCOCCOCC(=O)O; Aib = CC(C)(N)C(=O)O

T1: GIP receptor (human (printed as hGIPR), UniProt P48546 22-466)
T1 sequence (looked up): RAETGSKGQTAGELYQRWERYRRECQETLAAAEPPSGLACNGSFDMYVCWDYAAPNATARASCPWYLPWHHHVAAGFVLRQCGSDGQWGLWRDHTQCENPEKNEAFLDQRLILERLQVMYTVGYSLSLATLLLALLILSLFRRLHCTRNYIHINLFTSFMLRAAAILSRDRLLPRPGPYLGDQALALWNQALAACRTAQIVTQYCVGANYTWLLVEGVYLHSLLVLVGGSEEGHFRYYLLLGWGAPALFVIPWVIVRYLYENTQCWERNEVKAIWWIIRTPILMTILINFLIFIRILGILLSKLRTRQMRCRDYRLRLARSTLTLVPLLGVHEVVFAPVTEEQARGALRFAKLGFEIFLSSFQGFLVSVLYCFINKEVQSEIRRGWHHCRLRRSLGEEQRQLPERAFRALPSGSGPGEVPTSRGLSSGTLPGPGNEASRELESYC

T2: NPY2 receptor (human (printed as hNPY2R), UniProt P49146 1-381)
T2 sequence (looked up): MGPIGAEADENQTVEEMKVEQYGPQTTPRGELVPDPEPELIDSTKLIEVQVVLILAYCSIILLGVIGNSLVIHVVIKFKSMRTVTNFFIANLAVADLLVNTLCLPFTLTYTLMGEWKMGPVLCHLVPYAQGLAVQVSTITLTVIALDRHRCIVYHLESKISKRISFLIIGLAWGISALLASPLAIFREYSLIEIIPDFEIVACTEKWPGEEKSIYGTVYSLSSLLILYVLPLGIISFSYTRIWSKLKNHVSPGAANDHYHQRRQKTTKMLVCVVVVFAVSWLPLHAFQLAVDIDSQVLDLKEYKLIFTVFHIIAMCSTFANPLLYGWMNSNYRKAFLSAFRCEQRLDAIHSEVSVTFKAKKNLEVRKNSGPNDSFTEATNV

B1: Compound 232 (peptide)
peptide: YXEGTFTSDYSIXLEKQAQXAFVEWLIKGGPSYGASLRHYYNWLTRQRY
modifications: Aib at 2, 13, 20; K28 side chain carries C20DA-gGlu-gGlu-gGlu-gGlu-gGlu-gGlu-eLys; C-terminal amide
B2: Compound 249 (peptide)
peptide: B1 peptide with E24Q, Y33E
modifications: Aib at 2, 13, 20; K28 side chain carries C18DA-E-E-E-E-E-E-eLys (SEQ ID NO: 643); C-terminal amide
B3: Compound 244 (peptide)
peptide: B1 peptide with Y33T
modifications: Aib at 2, 13, 20; K28 side chain carries C20DA-gGlu-gGlu-gGlu-gGlu-gGlu-gGlu-eLys; C-terminal amide
B4: Compound 233 (peptide)
peptide: B1 peptide with Y33E, G34P
modifications: Aib at 2, 13, 20; K28 side chain carries C20DA-gGlu-gGlu-gGlu-gGlu-gGlu-gGlu-eLys; C-terminal amide
B5: Compound 236 (peptide)
peptide: B1 peptide with Y33E
modifications: Aib at 2, 13, 20; NMeR (N-methyl-L-arginine) at 48; K28 side chain carries C20DA-gGlu-gGlu-gGlu-gGlu-gGlu-gGlu-eLys; C-terminal amide
B6: Compound 241 (peptide)
peptide: B1 peptide with Y33E, A35V
modifications: Aib at 2, 13, 20; K28 side chain carries C20DA-gGlu-gGlu-gGlu-gGlu-gGlu-gGlu-eLys; C-terminal amide
B7: Compound 234 (peptide)
peptide: B1 peptide with Y10L, Y33E
modifications: Aib at 2, 13, 20; K28 side chain carries C20DA-gGlu-gGlu-gGlu-gGlu-Glu-gGlu-eLys (so in the source); C-terminal amide
B8: Compound 246 (peptide)
peptide: B1 peptide with E24Q, Y33E
modifications: Aib at 2, 13, 20; K28 side chain carries C18DA-gGlu-gGlu-gGlu-gGlu-gGlu-OEG-OEG; C-terminal amide
B9: Compound 238 (peptide)
peptide: B1 peptide with Y33S
modifications: Aib at 2, 13, 20; K28 side chain carries C20DA-gGlu-gGlu-gGlu-gGlu-gGlu; C-terminal amide
B10: Compound 237 (peptide)
peptide: B1 peptide with Y33E, A35E
modifications: Aib at 2, 13, 20; K28 side chain carries C20DA-gGlu-gGlu-gGlu-gGlu-gGlu-gGlu-eLys; C-terminal amide

Legend:
Assay in all cases: cell-based or functional assay
GLP-1 receptor = GLP-1 receptor (human (printed as hGLP1R), UniProt P43220 24-463)
GIP receptor = biological target: T1, GIP receptor
NPY2 receptor = biological target: T2, NPY2 receptor

Binder	EC50 hGLP1R 0.5% hP (CreLuc) (GLP-1 receptor) [nM]	EC50 hGLP1R 100% hP (CreLuc) (GLP-1 receptor) [nM]	EC50 hGIPR 0.5% hP (CreLuc) (GIP receptor) [nM]	EC50 hGIPR 100% hP (CreLuc) (GIP receptor) [nM]	EC50 hNPY2R 0.5% hP (CreLuc) (NPY2 receptor) [nM]	EC50 hNPY2R 100% hP (CreLuc) (NPY2 receptor) [nM]
Y[Aib]EGTFTSDYSI[Aib]LEKQAQ[Aib]AFVQWLIK([εLys-Glu-Glu-Glu-Glu-Glu-C20 diacid])GGPSEGASLRHYYNWLTRQRY-NH2 (also: TFA salt) [Compound 240]	0.14	6.74	0.33	1.97	10.7	77.5
Y[Aib]EGTFTSDYSI[Aib]LEKQAQ[Aib]AFVQWLIKGGPSEGASLRHYYNWLTRQRY-NH2 (not fully specified (residue 28); also: TFA salt) [Compound 245]	0.09	3.78	0.37	1.74	24.5	66.9
Y[Aib]EGTFTSDYSI[Aib]LEKQAQ[Aib]AFVQWLIKGGPSEGASLRHYYNWLTRQRY-NH2 (not fully specified (residue 28); also: TFA salt) [Compound 243]	0.12	5.96	0.54	2.97	9.16	50.6
Y[Aib]EGTFTSDYSI[Aib]LEKQAQ[Aib]AFIEWLIK([γGlu-γGlu-γGlu-γGlu-C18 diacid])GGPSEGASLRHYYNWLTRQRY-NH2 (also: TFA salt) [Compound 247]	0.11	2.2	0.26	1.57	11.9	64.7
B1	0.21	4.88	0.19	1.64	15.3	36.8
B2	0.13	1.78	0.19	1.25	17.8	50
B3	0.19	5.98	0.32	2.32	13.5	58.3
B4	0.17	1.7	0.08	0.75	12.6	27.1
B5	0.26	3.42	0.3	1.41	31	86.6
B6	0.77	9.65	0.69	4.36	16.6	34.1
B7	0.35	2.66	0.74	3.27	25.1	48.1
B8	0.11	2.7	0.16	0.95	12.8	28.2
B9	0.1	2.55	0.52	1.59	11.6	49.4
B10	0.26	3.11	0.1	1.17	18	45.5
Y[Aib]EGTFTSDYSI[Aib]LEKQAQ[Aib]AFVEWLIK([γGlu-γGlu-γGlu-γGlu-γGlu-γGlu-C20 diacid])GGPSSGASLRHYYNWLTRQRY-NH2 (also: TFA salt) [Compound 235]	0.12	4.64	0.34	2.81	13.9	77.7
Y[Aib]EGTFTSDYSI[Aib]LEKQAQ[Aib]AFVEWLIK([AEEA-AEEA-γGlu-γGlu-γGlu-C18 diacid])GGPEEGASLRHYYNWLTRQRY-NH2 (also: TFA salt) [Compound 248]	0.25	8	0.12	0.79	18.7	48.4
Y[Aib]EGTFTSDYSI[Aib]LEKQAQ[Aib]AFVQWLIK([AEEA-AEEA-Glu-Glu-Glu-Glu-C20 diacid])GGPSEGASLRHYYNWLTRQRY-NH2 (also: TFA salt) [Compound 239]	0.11	4.76	0.35	1.55	13.6	57
Y[Aib]EGTFTSDYSI[Aib]LEKQAQ[Aib]AFVQWLIK([εLys-γGlu-γGlu-γGlu-γGlu-γGlu-C20 diacid])GGPSEGASLRHYYNWLTRQRY-NH2 (also: TFA salt) [Compound 242]	0.13	4.69	0.32	1.72	7.54	28.8
